# According to the supplement of paper PMC7877785:
# ± gives the uncertainty stated by the source.
# Experiment: self-splicing fitness, log relative to wild type (ln ratio); higher = more splicing; Tetrahymena group I intron in knt gene, E. coli kanamycin selection, DiMSum; sequences stand for … in CUCUCU…GGAGGGAAAAGUUAUCAGGCAUGCACCUGGUAGCUAGUCUUUAAACCAAUAGAUUGCAUCGGUUUAAAAGGCAAGACCGUCAAAUUGCGGGAAAGGGGUCAACAGCCGUUCAGUACCAAGUCUCAGGGGAAACUUUGAGAUGGCCUUGCAAAGGGUAUGGUAAUAAGCUGACGGACAUGGUCCUAACCACGCAGCCAAGUCCUAAGUCAACAGAUCUUCUGUUGAUAUGGAUGCAGUUCACAGACUAAAUGUCGGUCGGGGAAGAUGUAUUCUUCUCAUAAGAUAUAGUCGGACCUCUCCUUAAUGGGAGCUAGCGGAUGAAGUGAUGCAACACUGGAGCCGCUGGGAACUAAUUUGUAUGCGAAAGUAUAUUGAUUAGUUUUGGAGUACUCGUGGUCG
# Summary of the method: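 A randomised library covering all eight P1ex-region intron nucleotides was built with the intron in the knt kanamycin-resistance gene on pET-22b(+) and held in E. coli BL21(DE3). Cells were grown overnight at 37°C or 30°C on LB agar, with or without 25 μg/mL kanamycin, plus 100 μg/mL carbenicillin, 50 μM IPTG and 0.2% rhamnose, and pooled colonies were amplicon-sequenced on an Illumina HiSeq 2500. DiMSum fitness is the error-weighted combination of wild-type-normalised replicate fold changes, kanamycin versus none.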
Sequence,self-splicing fitness (ln) (30 °C),self-splicing fitness (ln) (37 °C)
CUCGAGCAAUAUUACGGGUU,-3.47 ± 0.14,-3.05 ± 0.16
CUCGAGCAAUAUUACGUACU,-2.68 ± 0.2,-3.11 ± 0.33
CUCGAGCAAUAUUACGUAGA,-3.34 ± 0.21,-1.64 ± 0.14
CUCGAGCAAUAUUACGUCGC,-4.4 ± 0.36,-1.12 ± 0.19
CUCGAGCAAUAUUACGUCGU,-1.77 ± 0.26,-1.88 ± 0.37
CUCGAGCAAUAUUACGUCUC,-2.55 ± 0.23,-2.5 ± 0.39
CUCGAGCAAUAUUACGUGGG,-3.08 ± 0.14,-2.88 ± 0.2
CUCGAGCAAUAUUACGUGGU,-3.41 ± 0.16,-2.49 ± 0.18
CUCGAGCAAUAUUACGUUAG,-3.81 ± 0.21,-1.37 ± 0.14
CUCGAGCAAUAUUACGUUAU,-3.99 ± 0.36,-2.72 ± 0.3
CUCGAGCAAUAUUACGUUGU,-4.17 ± 0.18,-2.07 ± 0.14
CUCUAGCAAUAUUACGAAUU,-3.81 ± 0.29,-3.19 ± 0.4
CUCUAGCAAUAUUACGACUA,–,-1.71 ± 0.28
CUCUAGCAAUAUUACGCCCA,-2.25 ± 0.4,–
CUCUAGCAAUAUUACGCCUG,-2.33 ± 0.36,–
CUCUAGCAAUAUUACGCGGA,-3.1 ± 0.4,-1.9 ± 0.34
CUCUAGCAAUAUUACGCGUC,-3.9 ± 0.47,-2.85 ± 0.24
CUCUAGCAAUAUUACGCUAC,-3.65 ± 0.47,-1.14 ± 0.37
CUCUAGCAAUAUUACGCUGU,-3.07 ± 0.31,-3.24 ± 0.29
CUCUAGCAAUAUUACGGAAU,-3.43 ± 0.26,-3.25 ± 0.3
CUCUAGCAAUAUUACGGGUG,-1.57 ± 0.092,-0.947 ± 0.1
CUCUAGCAAUAUUACGGGUU,-4.28 ± 0.32,-3.31 ± 0.24
CUCUAGCAAUAUUACGGUCC,-2.84 ± 0.33,-2.53 ± 0.36

Sequence,self-splicing fitness (ln) (30 °C),self-splicing fitness (ln) (37 °C)
CUCUAGCAAUAUUACGGUCG,-1.51 ± 0.14,-0.933 ± 0.14
CUCUAGCAAUAUUACGGUGC,-2.62 ± 0.21,–
CUCUAGCAAUAUUACGUCCA,–,-2.12 ± 0.4
CUCUAGCAAUAUUACGUGGA,-3.43 ± 0.25,-2.17 ± 0.19
CUCUAGCAAUAUUACGUGUC,-3.45 ± 0.21,-3.91 ± 0.31
CUCUAGCAAUAUUACGUUAA,-2.75 ± 0.27,–
CUCUAGCAAUAUUACGUUUA,-3.48 ± 0.25,-3.07 ± 0.29
CUGAAGCAAUAUUACGAACA,-2.82 ± 0.41,-2.11 ± 0.23
CUGAAGCAAUAUUACGAGAC,-0.346 ± 0.11,0.35 ± 0.15
CUGAAGCAAUAUUACGAGCC,-3.13 ± 0.31,–
CUGAAGCAAUAUUACGAGUU,-4 ± 0.23,-3.47 ± 0.19
CUGAAGCAAUAUUACGAUAG,-0.213 ± 0.082,0.563 ± 0.11
CUGAAGCAAUAUUACGCACG,-0.222 ± 0.072,-1.34 ± 0.08
CUGAAGCAAUAUUACGCCAU,-3.41 ± 0.31,-2.52 ± 0.36
CUGAAGCAAUAUUACGCCUC,-3.61 ± 0.44,–
CUGAAGCAAUAUUACGCGCA,-3.11 ± 0.23,-2.19 ± 0.36
CUGAAGCAAUAUUACGCGGG,-1.65 ± 0.17,-1.83 ± 0.19
CUGAAGCAAUAUUACGCUGU,-3.65 ± 0.2,-2.75 ± 0.24
CUGAAGCAAUAUUACGGAAA,-3.46 ± 0.26,-1.43 ± 0.31
CUGAAGCAAUAUUACGGAGA,-3.62 ± 0.38,-1.97 ± 0.32
CUGAAGCAAUAUUACGGCAU,-2.91 ± 0.12,-3.52 ± 0.31
CUGAAGCAAUAUUACGGCCA,-2.42 ± 0.17,-2.69 ± 0.34
